Laboratory results taken from US20180369334A1 (Stanford University, published 2018).
One block for each binder: values may come before it.

Experiments:
[1] = biological target: human endothelial cells (HUVECs); assay: cell binding assay on human endothelial cells
[2] = biological target: human endothelial cells (HUVECs); assay: binding to HUVEC; the column prints only 'HUVEC (nM)'
[3] = biological target: T1, VEGFR2 (on PAE-VEGFR2 cells) (UniProt P35968 20-1356, limits assumed); assay: binding to PAE-VEGFR2 cells; the column prints only 'VEGFR2 (nM)'
T1 construct: whole, on cells
T1 sequence (P35968 20-1356 limits assumed): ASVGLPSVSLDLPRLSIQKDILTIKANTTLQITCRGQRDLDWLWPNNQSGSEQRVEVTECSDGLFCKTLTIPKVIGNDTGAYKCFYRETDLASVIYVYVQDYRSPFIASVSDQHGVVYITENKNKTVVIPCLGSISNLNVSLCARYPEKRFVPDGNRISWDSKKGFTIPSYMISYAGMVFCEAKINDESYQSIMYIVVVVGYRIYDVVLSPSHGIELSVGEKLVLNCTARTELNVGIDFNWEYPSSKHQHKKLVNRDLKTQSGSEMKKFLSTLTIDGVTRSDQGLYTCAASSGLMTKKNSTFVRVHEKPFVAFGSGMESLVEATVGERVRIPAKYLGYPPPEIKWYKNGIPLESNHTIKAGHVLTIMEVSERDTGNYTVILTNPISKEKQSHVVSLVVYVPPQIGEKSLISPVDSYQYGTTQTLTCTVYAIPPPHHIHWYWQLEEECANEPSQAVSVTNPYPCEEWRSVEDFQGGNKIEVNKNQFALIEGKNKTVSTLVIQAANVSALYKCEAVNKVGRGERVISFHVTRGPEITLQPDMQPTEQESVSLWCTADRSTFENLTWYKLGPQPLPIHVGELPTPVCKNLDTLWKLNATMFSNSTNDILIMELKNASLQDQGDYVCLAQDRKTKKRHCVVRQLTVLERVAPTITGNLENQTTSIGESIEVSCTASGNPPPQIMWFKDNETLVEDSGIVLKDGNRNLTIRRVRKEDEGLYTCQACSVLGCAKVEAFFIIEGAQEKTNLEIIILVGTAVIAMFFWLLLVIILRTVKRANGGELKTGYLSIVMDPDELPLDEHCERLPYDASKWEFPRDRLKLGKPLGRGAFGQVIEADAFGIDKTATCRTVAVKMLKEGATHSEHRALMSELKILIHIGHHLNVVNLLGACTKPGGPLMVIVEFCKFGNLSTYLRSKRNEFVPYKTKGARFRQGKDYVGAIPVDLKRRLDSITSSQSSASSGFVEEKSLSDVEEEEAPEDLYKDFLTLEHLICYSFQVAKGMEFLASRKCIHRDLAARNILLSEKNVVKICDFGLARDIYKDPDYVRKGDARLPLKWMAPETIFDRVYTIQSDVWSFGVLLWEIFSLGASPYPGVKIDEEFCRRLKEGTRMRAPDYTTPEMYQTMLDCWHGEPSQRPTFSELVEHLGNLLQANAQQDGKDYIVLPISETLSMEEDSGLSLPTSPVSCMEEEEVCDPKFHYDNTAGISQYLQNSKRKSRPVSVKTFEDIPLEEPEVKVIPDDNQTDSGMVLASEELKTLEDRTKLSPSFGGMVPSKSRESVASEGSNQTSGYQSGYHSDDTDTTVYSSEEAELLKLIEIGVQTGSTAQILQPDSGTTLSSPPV

[4] = biological target: T2, VEGFR1 (on PAE-VEGFR1 cells) (UniProt P17948 27-1338, limits assumed); assay: binding to PAE-VEGFR1 cells; the column prints only 'VEGFR1 (nM)', the text calls it an affinity
T2 construct: whole, on cells
T2 sequence (P17948 27-1338 limits assumed): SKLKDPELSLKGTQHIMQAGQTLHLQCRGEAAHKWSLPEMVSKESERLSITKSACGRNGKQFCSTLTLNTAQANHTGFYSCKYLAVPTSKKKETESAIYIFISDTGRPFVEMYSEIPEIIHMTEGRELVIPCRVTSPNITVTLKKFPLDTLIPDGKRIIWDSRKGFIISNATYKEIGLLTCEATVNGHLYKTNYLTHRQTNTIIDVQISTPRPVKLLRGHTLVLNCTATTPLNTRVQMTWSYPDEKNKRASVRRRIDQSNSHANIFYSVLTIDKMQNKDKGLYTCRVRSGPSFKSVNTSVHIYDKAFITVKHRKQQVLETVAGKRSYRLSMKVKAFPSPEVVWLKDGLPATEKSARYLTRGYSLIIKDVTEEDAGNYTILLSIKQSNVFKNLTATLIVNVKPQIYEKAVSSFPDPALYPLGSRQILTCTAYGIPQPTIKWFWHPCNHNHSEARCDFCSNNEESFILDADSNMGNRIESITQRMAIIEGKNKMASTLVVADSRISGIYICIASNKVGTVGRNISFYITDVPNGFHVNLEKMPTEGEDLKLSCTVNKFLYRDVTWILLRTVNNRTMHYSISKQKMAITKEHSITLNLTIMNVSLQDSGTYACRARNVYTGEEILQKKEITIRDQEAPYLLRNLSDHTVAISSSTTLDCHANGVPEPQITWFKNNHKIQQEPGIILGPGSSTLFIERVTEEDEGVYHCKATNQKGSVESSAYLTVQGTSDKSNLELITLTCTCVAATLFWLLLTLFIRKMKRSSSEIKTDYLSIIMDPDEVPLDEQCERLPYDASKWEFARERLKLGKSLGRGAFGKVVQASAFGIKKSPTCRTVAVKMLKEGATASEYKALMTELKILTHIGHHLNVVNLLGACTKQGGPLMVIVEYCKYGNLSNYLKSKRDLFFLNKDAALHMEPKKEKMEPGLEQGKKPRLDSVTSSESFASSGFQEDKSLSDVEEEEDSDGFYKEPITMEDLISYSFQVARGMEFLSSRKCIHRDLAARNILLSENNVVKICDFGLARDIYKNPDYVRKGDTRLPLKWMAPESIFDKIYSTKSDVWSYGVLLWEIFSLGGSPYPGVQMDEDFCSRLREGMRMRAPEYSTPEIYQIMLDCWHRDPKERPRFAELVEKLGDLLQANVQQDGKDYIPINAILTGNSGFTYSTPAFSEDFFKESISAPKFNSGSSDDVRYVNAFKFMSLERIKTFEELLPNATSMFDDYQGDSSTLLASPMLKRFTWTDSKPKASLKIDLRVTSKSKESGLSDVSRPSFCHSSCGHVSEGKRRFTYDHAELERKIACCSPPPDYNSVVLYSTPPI

- Kd [1]: 0.32 nM
B1: scVEGF-mE7I (SEQ ID NO: 75), construct with the original linker (ligand)
chain: EVVKAMDVYQRSYCHPIETLVDILQEYPDEIGYIFKPSCVPLMRCGGCCNGAGLECVPTEESNITMQIMRIKPHRGQHIGEMSFLQHNKCECRPKKDGGGGSGGGGSGGGGSGGGGSEVVRFMDVYQRSYCHPIETLVDIFQEYPNEIEYAFKPSCVPLMRCGGCCNNEGLECVPTEESNITMQIMRPSVRRGDSPASHIGEMSFLQHNKCECRPKKD

- Kd [1]: 0.16 nM
- fold improvement of KD against the construct with the original linker [1]: 2 fold
B2: scVEGF-mE7I construct containing the L3A linker (ligand)
chain: B1 chain

- Kd [2]: 0.4 nM
- Kd [3]: 0.5 nM
- Kd [4]: 0.55 nM
B3: scVEGFMUT-E (mE, SEQ ID NO.: 55) (ligand)
chain: EVVKAMDVYQRSYCHPIETLVDILQEYPDEIGYIFKPSCVPLMRCGGCCNGAGLECVPTEESNITMQIMRIKPHRGQHIGEMSFLQHNKCECRPKKDGSTSGSGKSSEGKGEVVRFMDVYQRSYCHPIETLVDIFQEYPNEIEYAFKPSCVPLMRCGGCCNNEGLECVPTEESNITMQIMRAKPHQGQHIGEMSFLQHNKCECRPKKD
notes: Chain 1: F36L, E44G, D63G, Q87R; also called scVEGFmE
